In US11788081 (STICHTING VU, dated 2023):
Non-standard residues stand in square brackets, D forms with d. *: point of attachment. FITC = O=C1OC2(c3ccc(O)cc3Oc3cc(O)ccc32)c2ccc(NC(=S)*)cc21; Nle = CCCC[C@H](N)C(=O)O; AEEA = NCCOCCOCC(=O)O

Target: T1, KIX domain from the human CREB binding protein (KIX wt) (human, UniProt Q92793 587-672)
T1 construct: domain: KIX domain; Expressed as GST fusion in E. coli, GST removed by PreScission cleavage
Assay: fluorescence polarization, FITC-labeled MLL peptide, protein titrated 70 µM-0 µM
Protocol: Binding of K1-t1 and K1-t2 to mixed lineage leukemia (MLL) transcription factor was evaluated using the FITC-labeled peptide FITC-020c-[…](Nle)[…]-NH2 (SEQ ID NO: 6). This sequence is derived from MLL and will be refereed as MLL peptide throughout. A 40 nM solution of MLL peptide in 25 mM HEPES (pH 7.4), 100 mM NaCl and 2 mM TCEP was prepared. A 3-fold dilution of KIX, K1-t1 and K1-t2 was performed in 14 steps on a 384-well-plate (black, round bottom, Corning) using the same buffer. 5 μL of 40 nM MLL peptide solution was then added, and the final 20 μL solution was incubated at r.t. A final protein range of 70 μM-0 μM was used. After 1 h-incubation, fluorescence polarization was measured using a Spark 20M plate reader (Tecan) with λ(ex)=485 nm and λ(em)=525 nm. Kd were determined by applying nonlinear regression analysis of dose-response curves in GraphPad Prism software.

T1 sequence (Q92793 587-672 limits assumed): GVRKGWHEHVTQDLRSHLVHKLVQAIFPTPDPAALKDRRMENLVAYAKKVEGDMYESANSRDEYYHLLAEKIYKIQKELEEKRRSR

B1: MLL peptide FITC-O2Oc-GNILPSDI(Nle)DFVLKNTP-NH2 (peptide)
peptide: {FITC-AEEA}-GNILPSDI[Nle]DFVLKNTP-NH2
notes: Synthetic peptide made by Fmoc SPPS on Rink amide resin; Used at 10 nM final (5 uL of 40 nM in 20 uL) in the FP assay; also called mixed lineage leukemia (MLL) transcription factor derived peptide
Work on B1 yielded a Kd of 600 nM.
